For assay [1], the target named is collagen. Put plainly: cell adhesion assay.
The target in assay [2] is fibrinogen (UniProt P02671). The assay can be described thus: SPR.
Assay [3] addresses T1, fibrinogen, P02671.
T1 chain 1: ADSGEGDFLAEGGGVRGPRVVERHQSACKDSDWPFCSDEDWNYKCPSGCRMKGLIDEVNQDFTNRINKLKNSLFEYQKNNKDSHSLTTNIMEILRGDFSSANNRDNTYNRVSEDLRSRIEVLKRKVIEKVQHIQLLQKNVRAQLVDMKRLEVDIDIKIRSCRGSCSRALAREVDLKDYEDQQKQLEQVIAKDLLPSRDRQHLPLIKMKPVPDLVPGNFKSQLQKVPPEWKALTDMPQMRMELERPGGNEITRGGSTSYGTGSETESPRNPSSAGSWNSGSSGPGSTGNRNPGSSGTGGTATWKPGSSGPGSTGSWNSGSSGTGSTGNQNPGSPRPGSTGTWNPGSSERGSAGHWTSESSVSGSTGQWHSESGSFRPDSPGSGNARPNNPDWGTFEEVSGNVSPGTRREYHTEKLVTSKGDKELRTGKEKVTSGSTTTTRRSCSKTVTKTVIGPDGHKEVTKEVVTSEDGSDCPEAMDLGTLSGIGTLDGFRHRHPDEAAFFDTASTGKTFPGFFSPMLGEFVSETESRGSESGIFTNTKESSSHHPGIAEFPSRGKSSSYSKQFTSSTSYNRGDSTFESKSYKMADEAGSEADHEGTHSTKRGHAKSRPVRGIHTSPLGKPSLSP
T1 chain 2: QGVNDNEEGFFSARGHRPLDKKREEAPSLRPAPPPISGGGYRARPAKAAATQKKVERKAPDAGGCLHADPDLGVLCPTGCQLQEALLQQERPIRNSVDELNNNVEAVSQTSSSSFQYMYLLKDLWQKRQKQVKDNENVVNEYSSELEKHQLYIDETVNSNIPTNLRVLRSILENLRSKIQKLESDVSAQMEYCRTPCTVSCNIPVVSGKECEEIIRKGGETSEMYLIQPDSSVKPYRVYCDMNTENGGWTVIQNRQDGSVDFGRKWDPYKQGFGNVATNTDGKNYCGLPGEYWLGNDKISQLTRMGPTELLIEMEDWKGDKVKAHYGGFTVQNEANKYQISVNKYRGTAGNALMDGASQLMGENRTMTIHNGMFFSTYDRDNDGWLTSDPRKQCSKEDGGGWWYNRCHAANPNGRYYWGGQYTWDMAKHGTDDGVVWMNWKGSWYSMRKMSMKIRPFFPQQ
T1 chain 3: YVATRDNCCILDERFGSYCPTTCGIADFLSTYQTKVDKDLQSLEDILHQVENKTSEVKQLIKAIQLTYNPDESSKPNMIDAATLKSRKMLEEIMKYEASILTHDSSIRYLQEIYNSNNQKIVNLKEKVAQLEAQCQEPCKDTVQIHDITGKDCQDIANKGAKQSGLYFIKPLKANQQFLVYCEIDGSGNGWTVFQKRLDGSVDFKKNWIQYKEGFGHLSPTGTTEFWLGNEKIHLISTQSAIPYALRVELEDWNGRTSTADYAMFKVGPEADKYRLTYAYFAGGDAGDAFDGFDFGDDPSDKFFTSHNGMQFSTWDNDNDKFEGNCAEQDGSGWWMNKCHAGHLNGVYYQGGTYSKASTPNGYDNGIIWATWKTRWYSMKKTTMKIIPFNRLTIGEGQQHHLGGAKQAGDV
The assay can be described thus: cell adhesion assay. As to conditions: remark: other sources report otherwise.

Broadly, the Kd is the constant that tells how readily two partners part at equilibrium. The low end stands for higher affinity, the high end for lower affinity. In general, koff refers to a measure of how fast the partners let go of each other. A higher koff goes with a short-lived complex. The term kon denotes a measure of how fast the partners come together. Lower therefore signals slower complex formation.

In assay [1], “human GPVI expressed on RBL-2H3 cells (from UniProt Q9HCN6 21-339) (receptor)” had a fold increase in cell adhesion relative to mock-transfected cells of 3 fold.
For the molecule “recombinant soluble GPVI extracellular domain, monomer (GPVI-ex) (from UniProt Q9HCN6 21-267) (domain or fragment)”, in assay [2], the Kd turned out to be 336 nM, the koff turned out to be 0.00394 s⁻¹ and the association rate constant (kon) amounted to 11700 M⁻¹ s⁻¹.

B1: human GPVI expressed on RBL-2H3 cells, Q9HCN6 21-339 (receptor)
chain: QSGPLPKPSLQALPSSLVPLEKPVTLRCQGPPGVDLYRLEKLSSSRYQDQAVLFIPAMKRSLAGRYRCSYQNGSLWSLPSDQLELVATGVFAKPSLSAQPGPAVSSGGDVTLQCQTRYGFDQFALYKEGDPAPYKNPERWYRASFPIITVTAAHSGTYRCYSFSSRDPYLWSAPSDPLELVVTGTSVTPSRLPTEPPSPVAEFSEATAELTVSFTNEVFTTETSRSITASPKESDSPAGPARQYYTKGNLVRICLGAVILIILAGFLAEDWHSRRKRLRHRGRAVQRPLPPLPPLPLTRKSNGGQDGGRQDVHSRGLCS
In turn, B1 had a fold increase in cell adhesion relative to mock-transfected cells in assay [3] of 3 fold.

(Values after publication PMC5927996.)
